From the RNAGym collection of RNA variant scans (doi:10.1073/pnas.2313332121)

B1: TPR t1 (parent)
chain: GACCAAUCUGCCCUCAGAGCUCGAGAACAUCUUCGGAUGCAGAGGAGGCAGGCUUCGGUGGCGCGAUAGCGCCAACGUCCUCAACCUCCAAUGCAUCCCACCACAUGAUGAUGCCUGAAGAGCCUUGGUUUUUUG

Variants of: B1
Test: polymerase ribozyme fitness, log enrichment relative to wild type (log ratio); higher = more active; in vitro selection for triplet polymerase activity
Procedure, shortened: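 Fitness compares each genotype's enrichment to that of the wild type on a logarithmic scale, averaging replicates with inverse-variance weights. The logarithm is base 2. Enrichment came from Illumina sequencing of input and output libraries after one triplicate round of in vitro selection, which included frozen incubation at −7 °C, of PCR-built, transcribed mutant libraries of each subunit of a heterodimeric triplet polymerase ribozyme. Only genotypes with ≥10 input reads and ≥1 read per output were kept.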

Compared with GACCAAUCUGCCCUCAGAGCUCGAGAACAUCUACGGAUGCAGAGGUGGCAGGCUUCGGUGGCGCGAUAGCGCCAACGUCCUCAACCUCCAAUGCAUACCACCACAUGAUGAUGCCUGAAGAGCCUUGGUUUUUUG, GACCAAUCUGCCCUCAGAGCUCGAGAACAUCUACGGAUGCAGAGGAGGCAAGCUUCGGUGGCGCGAUAGCGUCAACGUCCUCAACCUCCAAUGCAUCCCACCACAUGAUGAAGCCUGAAGAGCCUUGGUUUUUUG is lower in “polymerase ribozyme fitness (log ratio)” value: -6.45 for the first, -6.67 for the second.

Compared with GACCAAUCUGCCCUCAGAGCUCGAGAACAUCUACGGAUGCAGAGGAGGCAGUCUUCGGUGGCGCGAUAGCGCCAACGUCCUCAACCUCCAAUGCAUCCCACCACAUGAUGAUGCAUGAAGAGCCUUGGUUUUUUG, GACCAAUCUGCCCUCAGAGCUCGAGAACAUCUACGGAUGCAGAGGAGGCAGGCUUCGAUGGCGCGAUAGCGCCAACGUCCUCAACCUCCAAUGCAUCCCACCACAUGAUGAUGCCUGAAGAGCCUUGGUUUUUUG is lower in “polymerase ribozyme fitness (log ratio)” value: -4.73 for the first, -5.07 for the second.

First: GACCAAUCUGCCCUCAGAGCUCGAGAACAUCCUCGGAUGCAGAGGAGGCAGGCUUCGGUGGCGCGAUAGCGCCAACGUCCUCAACCACCAAUGCAUCCCACCACAUGAUGAUGCCUGAAGAGCCUUGGUUUUUUG
Second: GACCAAUCUGCCCUCAGAGCUCGAGAACAUCGUCGGAUGCAGAGGAGGCAGGCUUCGGUGGCGCGAUAGUGCCAACGUCCUCAACCUCCAAUGCAUCCCACCACAUGAUGAUGCCUGAAGAGCCUUGGUUUUUUG
The “polymerase ribozyme fitness (log ratio)” value of the first is higher: -0.0352 for the first, -7.16 for the second.

First: GACCAAUCUGCCCUCAGAGCUCGAGAACAUCCUCGGAUGCAGAGGAGGCAGGCUUCGGUCGCGCGAUAGCGCCACCGUGCUCAACCUCCAAUGCAUCCCACCACAUGAUGAUGCCUGAAGAGCCUUGGUUUUUUG
Second: GACCAAUCUGCCCUCAGAGCUCGAGAACAUCCUCGGAUGCAGAGGAGGCAGGCUUCGGUGGCUCGAUAGCGCCAACGUCCUCAACCUCCAAUGCAUCCCACCACAUGAUGAUUCCUGAAGAGCCUUGGUUUUUUG
The “polymerase ribozyme fitness (log ratio)” value of the first is higher: -1.89 for the first, -4.99 for the second.

Compared with GACCAAUCUGCCCUCAGAGCUCGAGAACAUCUACGGAUGCAGAGGAAGCAGGCUUCGGUGGCGCGAUAGCGCCAACGUCCUCAACCUCCAAUGCAUCCCACCACAUGAUGAUGCCUGAAGUGCCUUGGUUUUUUG, GACCAAUCUGCCCUCAGAGCUCGAGAACAUCUACGGAUGCAGAGGAGGCAGGCUUCGGUGGCGCGAUAGCGCCAACGUCCUCAACCACCAAUGCAUCCCACCACAUGAUGAUGCCUGAAGAGCCUUGGUUUUGUG is lower in “polymerase ribozyme fitness (log ratio)” value: -3.55 for the first, -4.32 for the second.

Going from GACCAAUCUGCCCUCAGAGCUCGAGAACAUCGUGGGAUGCAGAGGAGGCAGGCUUCGGUGGCGUGAUAGCGCCAACGUCCUCAAACUCCAAUGCAUCCCACCACAUGAUUAUGCCUGAAGAGCCUUGGUUUUUUG to GACCAAUCUGCCCUCAGAGCUCGAGAACAUCUACGGAUGCAGAGGAGGCAGGCUUCUGUGGCGCGAUAGCGCCAACGUCCUCAACCUCCAAUGCAUCCCACCACAUGAUGAUGCCUGAAGAGCAUAGGUUUUUUG, the “polymerase ribozyme fitness (log ratio)” value rises from -6.37 to -3.51.

First: GACCAAUCUGCCCUCAGAGCUCGAGAACAUCCUCGGAUGCAGAGGAGGCAGGCUUCGGUGGCGCGAUAGCGCCAACGUCCUCAACCUCCAAUGCAUCCCACCACAUGAUGAUGCCUUAAGAGCCUUGGUUUUUUG
Second: GACCAAUCUGCCCUCAGAGCUCGAGAACAUCGUCGGAUGCAGAGGAGGAAGGCUUCGGUGGCCCGAUAGCGCCAACGUCCUCAACCUCCAAUGCAUCCCACCACAUGAUGAUGCCUAAAGAGCCUUGGUUUUUUG
The “polymerase ribozyme fitness (log ratio)” value of the first is higher: -2.41 for the first, -6.8 for the second.

First: GACCAAUCUGCCCUCAGAGCUCGAGAACAUCUCCGGAUGCAGAGGCGGCAGGCUUCGGUGGCGCGAUAGCGCCAACGUCCUCAACCUCCAAUGCAUCCCACCACAUGAUGAUGCCUGAAGAGCCUUGGUUUUUUG
Second: GACCAAUCUGCCCUCAGAGCUCGAGAACAUCCUCCGAUGCAGAGGAGGCAGGAUUCGGUGGCGCGAUAGCGCCAACGACCUCAACCUCCAAUGCAUCCCACCACAUGAUGAUGCCUGAAGAGCCUUGGUUUUUUG
The “polymerase ribozyme fitness (log ratio)” value of the first is lower: -6.49 for the first, -4.25 for the second.

Going from GACCAAUCUGCCCUCAGAGCUCGAGAACAUCCUCGGAUGCAGAGGAGGCAGGCUUCGGUGGCGCGAUAGCGCCAACGUCCUCAAGCUCCAAUGCAUCCCACCACAUGAUGAUGCCUGAAGAGCCUUGGUUUUUUG to GACCAAUCUGCCCUCAGAGCUCGAGAACAUCCUCGGAUGCAGAGGAGUCAGGCUUAGGUGGCGCGAUAGCUCCAACGUCCUCAACCUCCAAUGCAUCCCACCACAUGAUGAGGCCUGAAGAGCCUUGGUUUUUUG, the “polymerase ribozyme fitness (log ratio)” value falls from -2.56 to -4.24.

Going from GACCAAUCUGCCCUCAGAGCUCGAGAACAUCUACGGAUGCAGAGGAGGCAGGCUUCGGUGGCGCGAUAGCGCCAACGUCCUCAACCUUCAAUGCAUCCCACCACAUGAUGAUGCCUGAAGAGCCUUGGUUUUUUG to GACCAAUCUGCCCUCAGAGCUCGAGAACAUCCUCGGAUGCAGAGGAGGCAGGCUUCGGUCGCGCGAUAGCGCCAACGUCCUCAACCUCCAAUGCAUCCCACCACAAGAUGAUACCUGAAGAGCUUUGGUUUUUUG, the “polymerase ribozyme fitness (log ratio)” value rises from -3.66 to -3.04.

In the case of GACCAAUCUGCCCUCAGAGCUCGAGAACAUCUACGGAUGCAGAGGAGGCAGGCUUCGGUGGCGCGAUAGCGCCAACGUCCUCAACCUCCAAUGCAUCCCACCACAUGAUGAUGCCUGAAUAGCCUUGGUUUUUUG, the “polymerase ribozyme fitness (log ratio)” value is reported as -5.15.
